{"source": "the supplement of paper PMC6379048", "test_in_all_cases": "Kd (EC50 corrected by depletion factor)", "key": {"TSN": {"target": "TSN (UniProt Q15631)", "sequence (Q15631 whole entry)": "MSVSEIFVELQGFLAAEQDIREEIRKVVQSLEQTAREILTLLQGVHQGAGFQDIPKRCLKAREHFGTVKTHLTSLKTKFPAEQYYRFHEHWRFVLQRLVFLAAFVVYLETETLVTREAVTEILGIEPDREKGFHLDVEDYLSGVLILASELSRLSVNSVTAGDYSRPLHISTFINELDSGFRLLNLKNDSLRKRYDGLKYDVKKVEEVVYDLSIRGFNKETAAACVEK", "how_it_was_run": "(§1)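 To obtain EC50, data were fitted with a four-parameter log-logistic model; Kd was then EC50 multiplied by a protein-dependent depletion factor. Beforehand, free RNA oligos (0 nM to 30 μM) were pre-incubated with HEK293-FT lysate (2.5 mg protein/well) for 1 h at 4°C. The lysate then spent 30 min at 4°C with the same 5′-amino-C6 oligos coupled to NHS-Sepharose beads, and bound proteins were quantified by label-free LC-MS/MS, normalised to the control.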"}, "CSTF1": {"target": "T1, CSTF1 (UniProt Q05048)", "T1 sequence": "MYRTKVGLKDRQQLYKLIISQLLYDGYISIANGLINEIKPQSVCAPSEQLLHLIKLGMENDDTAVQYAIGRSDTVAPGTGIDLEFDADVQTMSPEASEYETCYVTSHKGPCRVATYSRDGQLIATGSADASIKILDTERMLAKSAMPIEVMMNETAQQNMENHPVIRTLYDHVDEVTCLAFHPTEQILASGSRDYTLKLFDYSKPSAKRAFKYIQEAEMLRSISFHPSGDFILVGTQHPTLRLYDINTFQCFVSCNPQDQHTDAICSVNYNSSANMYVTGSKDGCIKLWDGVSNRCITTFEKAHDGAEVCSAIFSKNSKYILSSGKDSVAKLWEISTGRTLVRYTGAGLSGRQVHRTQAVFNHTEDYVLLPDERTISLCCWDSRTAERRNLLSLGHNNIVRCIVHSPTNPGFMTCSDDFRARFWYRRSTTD", "how_it_was_run": "as §1"}, "MRPS34": {"target": "MRPS34 (UniProt P82930)", "how_it_was_run": "as §1"}, "MYEF2": {"target": "T2, MYEF2 (UniProt Q9P2K5)", "T2 sequence": "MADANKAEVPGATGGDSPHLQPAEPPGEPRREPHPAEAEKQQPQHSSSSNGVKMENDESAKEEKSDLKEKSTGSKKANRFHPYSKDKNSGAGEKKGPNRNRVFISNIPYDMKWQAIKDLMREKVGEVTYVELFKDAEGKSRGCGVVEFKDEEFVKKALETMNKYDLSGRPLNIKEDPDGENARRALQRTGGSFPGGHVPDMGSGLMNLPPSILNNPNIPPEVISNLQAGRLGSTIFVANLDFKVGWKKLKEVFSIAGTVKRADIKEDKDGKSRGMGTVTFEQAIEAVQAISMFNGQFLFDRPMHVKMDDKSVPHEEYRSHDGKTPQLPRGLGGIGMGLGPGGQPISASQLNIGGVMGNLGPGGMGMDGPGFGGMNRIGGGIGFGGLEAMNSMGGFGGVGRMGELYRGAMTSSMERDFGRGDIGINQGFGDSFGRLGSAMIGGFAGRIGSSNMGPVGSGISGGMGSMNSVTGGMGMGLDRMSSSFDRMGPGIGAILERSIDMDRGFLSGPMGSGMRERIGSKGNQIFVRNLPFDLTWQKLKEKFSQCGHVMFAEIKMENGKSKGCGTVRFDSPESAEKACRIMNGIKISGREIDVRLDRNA", "how_it_was_run": "as §1"}, "MRPS2": {"target": "MRPS2 (UniProt Q9Y399)", "how_it_was_run": "as §1"}, "RPS5": {"target": "RPS5 (UniProt P46782)", "how_it_was_run": "as §1"}, "PCBP1": {"target": "PCBP1 (UniProt Q15365)", "sequence (Q15365 whole entry)": "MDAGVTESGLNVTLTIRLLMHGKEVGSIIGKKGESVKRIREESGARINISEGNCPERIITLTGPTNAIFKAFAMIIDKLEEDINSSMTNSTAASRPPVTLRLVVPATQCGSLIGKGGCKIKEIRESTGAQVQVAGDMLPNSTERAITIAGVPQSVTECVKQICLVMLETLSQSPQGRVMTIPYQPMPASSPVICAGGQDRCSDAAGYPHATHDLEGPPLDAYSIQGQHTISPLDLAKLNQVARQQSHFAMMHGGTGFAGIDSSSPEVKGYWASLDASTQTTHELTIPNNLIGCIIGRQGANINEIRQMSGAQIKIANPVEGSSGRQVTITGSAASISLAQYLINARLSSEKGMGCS", "how_it_was_run": "as §1"}, "MRPL50": {"target": "MRPL50 (UniProt Q8N5N7)", "how_it_was_run": "as §1"}, "RPL7": {"target": "RPL7 (UniProt P18124)", "how_it_was_run": "as §1"}, "FUBP1": {"target": "T3, FUBP1 (UniProt Q96AE4)", "T3 sequence": "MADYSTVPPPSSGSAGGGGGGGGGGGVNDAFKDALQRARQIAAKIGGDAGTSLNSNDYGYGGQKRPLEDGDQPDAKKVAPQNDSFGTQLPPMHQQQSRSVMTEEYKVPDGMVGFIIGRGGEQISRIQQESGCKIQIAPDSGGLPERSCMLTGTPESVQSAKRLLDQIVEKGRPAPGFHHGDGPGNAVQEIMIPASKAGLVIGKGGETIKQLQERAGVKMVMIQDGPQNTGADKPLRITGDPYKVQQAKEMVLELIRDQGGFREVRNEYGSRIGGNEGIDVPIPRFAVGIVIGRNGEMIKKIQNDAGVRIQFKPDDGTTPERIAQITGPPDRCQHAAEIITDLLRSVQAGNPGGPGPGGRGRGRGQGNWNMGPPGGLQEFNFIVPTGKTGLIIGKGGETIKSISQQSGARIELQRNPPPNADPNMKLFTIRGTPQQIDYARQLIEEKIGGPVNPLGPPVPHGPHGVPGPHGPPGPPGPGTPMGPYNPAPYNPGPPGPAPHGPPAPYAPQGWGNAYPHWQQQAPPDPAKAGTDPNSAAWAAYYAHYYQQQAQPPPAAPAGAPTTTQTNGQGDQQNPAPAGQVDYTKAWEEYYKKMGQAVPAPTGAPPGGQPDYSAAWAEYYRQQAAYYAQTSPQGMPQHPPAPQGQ", "how_it_was_run": "as §1"}}, "data": [{"sequence": "UAUUUAU", "values": [{"measurement": "Kd", "setting": "TSN", "result": 16.8, "unit": "nM"}, {"measurement": "Kd", "setting": "CSTF1", "result": 322, "unit": "nM"}, {"measurement": "Kd", "setting": "MRPS34", "result": 46.2, "unit": "nM"}, {"measurement": "Kd", "setting": "MYEF2", "result": 2700, "unit": "nM"}, {"measurement": "Kd", "setting": "MRPS2", "result": 27.7, "unit": "nM"}]}, {"sequence": "CUGUCCU", "values": [{"measurement": "Kd", "setting": "RPS5", "result": 146, "unit": "nM"}, {"measurement": "Kd", "setting": "PCBP1", "result": 1560, "unit": "nM"}, {"measurement": "Kd", "setting": "MRPL50", "result": 149, "unit": "nM"}]}, {"sequence": "AAUAAA", "values": [{"measurement": "Kd", "setting": "RPL7", "result": 3960, "unit": "nM"}, {"measurement": "Kd", "setting": "FUBP1", "result": 673, "unit": "nM"}]}]}
